From article PMC10680838

Molecular target: DcpA (Agrobacterium tumefaciens C58)
Test: cross-linking

PruR (natural protein)
stoichiometry N: 1
